Experimental data published in PMC7714071, “Interaction of amyloid beta with humanin and acetylcholinesterase is modulated by ATP” (FEBS Open Bio, 2020).

How the values were obtained:
[1] = system: AChE-Aβ complex (H1299 cell-conditioned media); test: ELISA, AChE found in a complex with Aβ in H1299 cell-conditioned media; format: binding, human; settings: Fig. 5C,D
Procedure: Human NSCLC cell lines, A549 (ATCC CCL‐185) and H1299 (ATCC CRL‐5803), were purchased from the American Type Culture Collection (ATCC, Manassas, VA, USA). Cells were seeded as we reported earlier in 5 mL HyClone Dulbecco's modified Eagle's medium/nutrient mixture F‐12 (DMEM/F12) (GE Healthcare Life Sciences, Pittsburgh, PA, USA), supplemented with 10% Fetalgro bovine growth serum (FBS; RMBIO, Missoula, MT, USA), 50 U·mL^−1 penicillin, and […] streptomycin (Invitrogen, Life Technologies, Carlsbad, CA, USA) in 25‐cm^2 tissue culture flasks, and allowed to grow overnight in an incubator at 37 °C, 95% humidity, and 5% CO2. The cells were counted after trypan blue staining, with a hemocytometer.
ELISAs were carried out as we previously reported. […] TBST was then used to wash the wells 4× before proceeding in one of two ways: (a) biotinylated samples were analyzed by adding 100 µL streptavidin–HRP conjugate in TBST (1 : 2500 dilution) to the samples followed by incubation for 3 h at RT on a shaker, or (b) samples without biotin were analyzed by adding 100 µL TBST containing the primary antibody as per the manufacturer's recommendation, incubating for 3 h at RT on a shaker, followed by washing the wells 4× with TBST. […] The reaction was stopped with 100 µL 2 M H2SO4 after incubating at RT for 0.5–15 min, resulting in a yellow color change, measured by absorbance at 450 nm. […]

[2] = system: Aβ40; settings: HN and AChE compared; cited from earlier work
From the text: Amino acid residues involved in direct interactions between HN and Aβ40 were identified previously by molecular modeling. The specific epitopes at the binding interface between HN and Aβ40 were identified, by proteolytic epitope excision and extraction in addition to affinity–mass spectrometric data analysis, to be HN (5–15) and Aβ (17–28). […] Inhibiting the 17–28 region of Aβ reduced aggregation of the neurotoxic amyloid fibrils and related cytotoxicity in SH‐SY5Y, a human neuroblastoma cell ... || Humanin has been previously reported to bind amino acid residues 17–28 of Aβ (Fig. 1). AChE is also known to bind Aβ (1–16) and the Aβ (12–28) region (Fig. 1). Since the binding sites of AChE and HN on Aβ are overlapping, we previously investigated whether HN and AChE can simultaneously bind Aβ [79].

[3] = system: Aβ cytotoxicity; settings: versus Aβ aggregates alone; cited from earlier work
From the text: Almost all types of cells produce amyloid beta (Aβ), a peptide well recognized for its role in the development and progression of different stages of Alzheimer's disease (AD). The Aβ peptide is ~ 4 kDa and derived from the sequential processing of the higher molecular weight amyloid precursor protein by two membrane‐bound endoproteases, β‐ and γ‐secretase. Different C‐terminal Aβ heterogeneity results from processing by γ‐secretase, where Aβ40 represents the most abundant isoform (~ 90%) as compared to Aβ42 (~ 10%). Self‐assembled Aβ40/42 peptides into amyloid fib ... || Soluble oligomers of proteins implicated in different diseases are primarily thought to be the main toxic form as opposed to the larger fibrillar assemblies. Aβ regions containing Tyr and Ser (H6DSGY10 and G25SNKG29) (Fig. 1) along with post‐translational modifications of these regions, have been implicated in misfolding, oligomerization, or fibril formation of Aβ [5, 10, 11, 16, 41]. […] Aβ proteins a ... || Acetylcholinesterase (AChE) is an enzyme known for its role in terminating acetylcholine‐mediated neurotransmission at the synaptic cleft. The majority of the cortical AChE in the Alzheimer's brain is mainly associated with the amyloid core of senile plaques. […]

B1: acetylcholinesterase (protein)
chain: EGREDAELLVTVRGGRLRGIRLKTPGGPVSAFLGIPFAEPPMGPRRFLPPEPKQPWSGVVDATTFQSVCYQYVDTLYPGFEGTEMWNPNRELSEDCLYLNVWTPYPRPTSPTPVLVWIYGGGFYSGASSLDVYDGRFLVQAERTVLVSMNYRVGAFGFLALPGSREAPGNVGLLDQRLALQWVQENVAAFGGDPTSVTLFGESAGAASVGMHLLSPPSRGLFHRAVLQSGAPNGPWATVGMGEARRRATQLAHLVGCPPGGTGGNDTELVACLRTRPAQVLVNHEWHVLPQESVFRFSFVPVVDGDFLSDTPEALINAGDFHGLQVLVGVVKDEGSYFLVYGAPGFSKDNESLISRAEFLAGVRVGVPQVSDLAAEAVVLHYTDWLHPEDPARLREALSDVVGDHNVVCPVAQLAGRLAAQGARVYAYVFEHRASTLSWPLWMGVPHGYEIEFIFGIPLDPSRNYTAEEKIFAQRLMRYWANFARTGDPNEPRDPKAPQWPPYTAGAQQYVSLDLRPLEVRRGLRAQACAFWNRFLPKLLSATDTLDEAERQWKAEFHRWSSYMVHWKNQFDHYSKQDRCSDL
[1]
  AChE detected in complex with Aβ: No AChE was detected above background
[2]
  affinity for Aβ40: comparable affinities
[3]
  toxicity of AChE-amyloid complexes: Higher toxicity
